According to article PMC12212138, “Crystal structure and mutagenesis of a nucleic acid–binding BRCT domain in human PARP4”:
Changes are numbered by the printed parent chain.

Key:
Conditions in all cases: protein: recombinant; tags: N-terminal His-SUMO removed by TEV; label: 5'-6-FAM; predicted intramolecular fold
PARP4 BRCT WT [1] = target: T1, PARP4 BRCT WT (human, UniProt Q9UKK3 1-100); assay: EMSA; 20 nM probe; FP: 50 mM Tris pH 7.5, 50 mM NaCl, 1 mM MgCl2, 0.05% NP40, 2 mM DTT, 5% glycerol, 25 ug/ml BSA, room temp 30 min; EMSA: 50 mM Tris pH 7.5, 50 mM NaCl, 4% Ficoll PM400, 0.05% NP40, 2 mM DTT, 0-18 uM protein, room temp 30 min, gel at 4 C
T1 sequence: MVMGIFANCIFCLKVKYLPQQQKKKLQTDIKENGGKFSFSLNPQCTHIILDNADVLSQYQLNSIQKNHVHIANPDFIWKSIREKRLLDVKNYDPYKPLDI

PARP4 BRCT-WGR-CAT WT [2] = target: T2, PARP4 BRCT-WGR-CAT WT (human, UniProt Q9UKK3 1-573); assay: as above
T2 sequence: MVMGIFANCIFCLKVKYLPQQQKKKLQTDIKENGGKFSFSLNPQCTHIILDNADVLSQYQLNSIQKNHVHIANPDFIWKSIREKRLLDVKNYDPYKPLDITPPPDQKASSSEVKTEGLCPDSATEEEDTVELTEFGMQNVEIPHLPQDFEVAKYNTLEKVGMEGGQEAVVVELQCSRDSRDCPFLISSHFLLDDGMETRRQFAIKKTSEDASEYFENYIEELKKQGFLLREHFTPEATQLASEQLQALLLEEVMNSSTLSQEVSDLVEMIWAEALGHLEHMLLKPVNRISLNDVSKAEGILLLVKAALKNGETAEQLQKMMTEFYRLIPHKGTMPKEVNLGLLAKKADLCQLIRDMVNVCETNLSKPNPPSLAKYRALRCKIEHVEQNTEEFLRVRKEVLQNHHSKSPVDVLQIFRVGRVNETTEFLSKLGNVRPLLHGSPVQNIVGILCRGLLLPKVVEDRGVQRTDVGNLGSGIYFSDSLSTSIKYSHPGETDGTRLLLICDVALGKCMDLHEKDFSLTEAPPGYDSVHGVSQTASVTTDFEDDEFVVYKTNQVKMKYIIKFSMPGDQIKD

PARP4 BRCT F39Q = target: T3, PARP4 BRCT F39Q (human, UniProt Q9UKK3 1-100, F39Q); assay: as above
T3 sequence: T1 sequence with F39Q

PARP4 BRCT F39A = target: T4, PARP4 BRCT F39A (human, UniProt Q9UKK3 1-100, F39A); assay: as above
T4 sequence: T1 sequence with F39A

PARP4 BRCT K31Q = target: T5, PARP4 BRCT K31Q (human, UniProt Q9UKK3 1-100, K31Q); assay: as above
T5 sequence: T1 sequence with K31Q

PARP4 BRCT-WGR-CAT WT [3] = target: T2, PARP4 BRCT-WGR-CAT WT; assay: FP; 3 or 15 nM probe; FP: 50 mM Tris pH 7.5, 50 mM NaCl, 1 mM MgCl2, 0.05% NP40, 2 mM DTT, 5% glycerol, 25 ug/ml BSA, room temp 30 min; EMSA: 50 mM Tris pH 7.5, 50 mM NaCl, 4% Ficoll PM400, 0.05% NP40, 2 mM DTT, 0-18 uM protein, room temp 30 min, gel at 4 C
PARP4 BRCT WT [4] = target: T1, PARP4 BRCT WT; assay: FP; 3 nM probe, probe concentration comparison; FP: 50 mM Tris pH 7.5, 50 mM NaCl, 1 mM MgCl2, 0.05% NP40, 2 mM DTT, 5% glycerol, 25 ug/ml BSA, room temp 30 min; EMSA: 50 mM Tris pH 7.5, 50 mM NaCl, 4% Ficoll PM400, 0.05% NP40, 2 mM DTT, 0-18 uM protein, room temp 30 min, gel at 4 C

B1: vtRNA1-3 (structured_RNA)
RNA: GGCUGGCUUUAGCUCAGCGGUUACUUCGCGUGUCAUCAAACCACCUCUCUGGGUUGUUCGAGACCCGCGGGCGCUCUCCAGCCCUCUU
Question: What does the source list for B1?
Answer: Kd (PARP4 BRCT WT [1]): 500 ± 200 nM; Kd (PARP4 BRCT-WGR-CAT WT [2]): 3000 ± 1000 nM; Kd (PARP4 BRCT F39Q): 900 ± 500 nM; Kd (PARP4 BRCT F39A): 600 ± 100 nM; Kd (PARP4 BRCT K31Q): 3000 ± 1000 nM; Kd (PARP4 BRCT-WGR-CAT WT [3]): 27 ± 9 µM; Kd (PARP4 BRCT WT [4]): 19 ± 3 µM
